Reference: the supplement of paper PMC12338614
± gives the uncertainty stated by the source.

B1: library; numbered along this chain (parent)
chain: MEVVDPQQLGMFTEGELMSVGMDTFIHRIDSTEVIYQPRRKRAKLIGKYLMGDLLGEGSYGKVKEVLDSETLCRRAVKILKKKKLRRIPNGEANVKKEIQLLRRLRHKNVIQLVDVLYNEEKQKMYMVMEYCVCGMQEMLDSVPEKRFPVCQAHGYFCQLIDGLEYLHSQGIVHKDIKPGNLLLTTGGTLKISDLGVAEALHPFAADDTCRTSQGSPAFQPPEIANGLDTFSGFKVDIWSAGVTLYNITTGLYPFEGDNIYKLFENIGKGSYAIPGDCGPPLSDLLKGMLEYEPAKRFSIRQIRQHSWFRKKHPPAEAPVPIPPSPDTKDRWRSMTVVPYLEDLHGADEDEDLFDIEDDIIYTQDFTVPGQVPEEEASHNGQRRGLPKAVCMNGTEAAQLSTKSRAEGRAPNPARKACSASSKIRRLSACKQQ

Variants of: B1
Experiment: STK11 functional score (HeLa growth suppression), rescaled enrichment; synonymous median = 1, nonsense median = 0 (normalised score)
Settings: with HeLa; variant type: missense
Procedure: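 Deep mutational scan (TileSeq/POPCode codon randomisation) of full-length codon-optimised STK11 cDNA integrated at a Bxb1 landing pad (AAVS1) in HeLa cells. Restoring functional STK11 suppresses HeLa proliferation. Variant frequencies were measured by NGS before and after about two weeks of growth. The error-corrected enrichment log-ratio was rescaled so that synonymous median = 1 and nonsense median = 0, scores above 1 were compressed, and codon-level and three biological replicate scores were combined; error is the bootstrapped standard error. Scale: synonymous median = 1, nonsense median = 0; below 0.5 = damaging.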

Point of comparison: L184A, STK11 functional score 0.745 ± 0.32. Against it:
- S169I — lower, 0.231 ± 0.09
- Y118R — within error, 1.04 ± 0.18
- L9I — higher, 1.37 ± 0.3
- L245R — lower, -0.0758 ± 0.098
- L245T — lower, -0.038 ± 0.1
- D352T — higher, 1.57 ± 0.15
- F309R — lower, 0.0957 ± 0.13
- P373W — higher, 1.6 ± 0.2
- P373T — within error, 1.11 ± 0.17
- P373I — higher, 1.31 ± 0.18
- V114R — within error, 0.501 ± 0.086
- D359P — higher, 1.5 ± 0.3
- Q302H — within error, 1.12 ± 0.3
- Q302V — within error, 1.21 ± 0.28
- E165R — within error, 1.18 ± 0.59
- A410N — higher, 1.32 ± 0.11
- E351I — higher, 1.27 ± 0.15
- E351F — within error, 1.19 ± 0.47
- T249K — lower, -0.0774 ± 0.081
- L427K — higher, 1.53 ± 0.13
- Q137D — within error, 0.482 ± 0.11
- H154R — within error, 0.997 ± 0.16
- L290H — lower, -0.09 ± 0.07
- F366L — within error, 1.16 ± 0.27
- G188L — within error, 0.732 ± 0.17
- G188W — within error, 0.946 ± 0.11
- A316P — within error, 0.694 ± 0.36
- N119G — within error, 0.965 ± 0.23
- A347V — within error, 1.23 ± 0.32
- I88D — higher, 1.58 ± 0.25
- K262L — within error, 1.13 ± 0.13
- K262D — higher, 1.38 ± 0.2
- K262F — within error, 0.714 ± 0.098
- E291S — higher, 1.38 ± 0.14
- I274M — within error, 0.974 ± 0.14
- I238S — within error, 0.58 ± 0.16
- V66S — within error, 0.975 ± 0.13
- V66R — lower, -0.0455 ± 0.097
- L386R — higher, 1.43 ± 0.25
- L386E — higher, 1.55 ± 0.22
- P281A — within error, 0.84 ± 0.1
- K312G — higher, 1.62 ± 0.15
- K312F — within error, 0.982 ± 0.26
- V110P — within error, 0.481 ± 0.081
- V197G — within error, 0.372 ± 0.21
- V197L — within error, 1.05 ± 0.21
- G370A — within error, 1.21 ± 0.58
- G370E — higher, 1.43 ± 0.25
- R211A — higher, 1.28 ± 0.14
- R211G — higher, 1.51 ± 0.2
- V143Q — within error, 0.751 ± 0.082
- L353S — higher, 1.6 ± 0.14
- L353T — higher, 1.45 ± 0.16
- K44G — within error, 0.448 ± 0.26
- K44Q — within error, 1.24 ± 0.31
- K44V — within error, 0.967 ± 0.15
- K44N — within error, 1.08 ± 0.33
- M129D — within error, 1.37 ± 0.36
- S421C — within error, 0.549 ± 0.38
- T189Y — within error, 0.71 ± 0.92
- V368G — higher, 1.38 ± 0.2
- Q170L — within error, 0.967 ± 0.15
- K64C — within error, 0.813 ± 0.53
- G56W — lower, -0.159 ± 0.14
- C391R — higher, 1.6 ± 0.29
- C391F — within error, 0.922 ± 0.52
- L55I — within error, 1.39 ± 0.34
- Y272I — within error, 1.08 ± 0.3
- D258Y — higher, 1.49 ± 0.2
- A377Q — higher, 1.59 ± 0.23
- R75D — higher, 1.68 ± 0.28
- S404N — higher, 1.52 ± 0.28
- E70Y — within error, 1.14 ± 0.29
- P326R — higher, 1.53 ± 0.18
- L72A — within error, 0.81 ± 0.3
- P314C — higher, 1.53 ± 0.18
- P314G — within error, 1.07 ± 0.47
- K235Y — within error, 1.19 ± 0.36
- R87P — higher, 1.24 ± 0.12
- R87A — lower, 0.186 ± 0.13
- K41H — higher, 1.44 ± 0.13
- S325V — within error, 0.786 ± 0.11
- S325E — within error, 1.24 ± 0.67
- S325Q — higher, 1.42 ± 0.32
- L344H — within error, 1.14 ± 0.19
- K311L — within error, 1.04 ± 0.14
- G15D — higher, 1.72 ± 0.12
- E407I — higher, 1.61 ± 0.22
- E407S — higher, 1.57 ± 0.18
- E407K — higher, 1.55 ± 0.37
- E374K — within error, 1.47 ± 0.53
- E374S — higher, 1.46 ± 0.33
- K82P — higher, 1.69 ± 0.18
- K82V — within error, 0.966 ± 0.26
- N259W — within error, 0.92 ± 0.36
- N380S — within error, 0.982 ± 0.22
- V95L — within error, 0.889 ± 0.12
- E92M — lower, -0.344 ± 0.13
- E92A — within error, 1.31 ± 0.35
- A406M — within error, 0.606 ± 0.2
- P294H — within error, 0.973 ± 0.64
- T32A — higher, 1.66 ± 0.13
- E16F — within error, 1.42 ± 0.42
- D365N — within error, 0.613 ± 0.79
- Q123M — higher, 1.6 ± 0.17
- D348T — higher, 1.57 ± 0.27
- P217R — within error, 0.3 ± 0.39
- P217H — within error, 0.332 ± 0.43
- P324M — within error, 0.794 ± 0.7
- P319Q — higher, 1.39 ± 0.2
- M289S — lower, -0.188 ± 0.1
- H27I — within error, 0.637 ± 0.096
- P6G — within error, 0.386 ± 0.15
- P6Y — higher, 1.67 ± 0.12
- K108R — higher, 1.33 ± 0.16
- K108D — lower, 0.31 ± 0.081
- K108L — within error, 1.1 ± 0.15
- L167G — lower, 0.121 ± 0.079
- G346P — higher, 1.61 ± 0.14
- K78F — lower, 0.0316 ± 0.078
- T250P — lower, -0.224 ± 0.1
- T250G — within error, 0.834 ± 0.095
- N412Y — higher, 1.55 ± 0.3
- N412L — higher, 1.62 ± 0.21
- N90I — within error, 0.781 ± 0.2
- N90D — within error, 1.23 ± 0.21
- D229G — within error, 1.03 ± 0.24
- R40K — within error, 1 ± 0.48
- C134E — higher, 1.45 ± 0.2
- A397H — higher, 1.64 ± 0.3
- S31I — higher, 1.41 ± 0.12
- F255Q — within error, 0.98 ± 0.44
- F255T — within error, 0.94 ± 0.13
- Q220T — higher, 1.67 ± 0.23
- S213W — within error, 1.14 ± 0.092
- I177M — within error, 0.6 ± 0.17
- I177G — lower, -0.017 ± 0.094
- K287V — within error, 1.2 ± 0.36
- F148S — lower, -0.139 ± 0.082
- F148D — lower, -0.396 ± 0.083
- E396A — within error, 1.29 ± 0.47
- I192N — within error, 1.23 ± 0.67
- I356Q — higher, 1.58 ± 0.21
- A153M — lower, -0.195 ± 0.097
- A153Y — lower, -0.0988 ± 0.073
- P387C — higher, 1.54 ± 0.24
- P387N — higher, 1.63 ± 0.24
- Q399R — within error, 0.852 ± 0.19
- G242V — lower, -0.059 ± 0.094
- R384P — higher, 1.56 ± 0.24
- D358A — higher, 1.27 ± 0.15
- N109W — lower, 0.336 ± 0.076
- K416F — within error, 0.683 ± 0.49
- P254C — within error, 0.821 ± 0.47
- S422I — higher, 1.3 ± 0.21
- S422T — within error, 0.705 ± 0.26
- G135S — higher, 1.65 ± 0.17
- K403M — lower, 0.00927 ± 0.14
- K403N — within error, 1.42 ± 0.6
- K403C — within error, 0.656 ± 0.13
- V390G — higher, 1.39 ± 0.32
- V390H — within error, 0.912 ± 0.65
- R405H — higher, 1.59 ± 0.29
- K96H — higher, 1.33 ± 0.072
- D194R — lower, -0.0399 ± 0.12
- P89T — within error, 0.786 ± 0.13
